{
  "source": "paper PMC5716276",
  "about": "(The Journal of Cell Biology, 2017)",
  "binders": {"B1": {"name": "KxDL1 (subunit of recombinant BORCΔBLOC-1) (natural protein)", "chain": "MDLPDSASRVFCGRILSMVNTDDVNAIILAQKNMLDRFEKTNEMLLNFNNLSSARLQQMSERFLHHTRTLVEMKRDLDSIFRRIRTLKGKLARQHPEAFSHIPEASFLEEEDEDPIPPSTTTTIATSEQSTGSCDTSPDTVSPSLSPGFEDLSHVQPGSPAINGRSQTDDEEMTGE"}},
  "target": "T1, Strep lyspersin (subunit of recombinant BORCΔBLOC-1) (UniProt Q96GS4 1-357)",
  "T1 sequence": "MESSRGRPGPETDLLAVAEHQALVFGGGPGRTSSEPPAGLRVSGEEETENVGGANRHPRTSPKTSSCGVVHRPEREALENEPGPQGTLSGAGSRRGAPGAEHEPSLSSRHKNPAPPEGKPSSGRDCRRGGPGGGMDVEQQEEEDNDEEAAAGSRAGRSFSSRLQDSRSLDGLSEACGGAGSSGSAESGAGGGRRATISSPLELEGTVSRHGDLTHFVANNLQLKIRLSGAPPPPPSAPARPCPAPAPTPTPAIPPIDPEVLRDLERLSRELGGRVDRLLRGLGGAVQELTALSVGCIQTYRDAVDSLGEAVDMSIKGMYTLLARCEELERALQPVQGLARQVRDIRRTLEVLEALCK",
  "assay": "cross-linking",
  "data": [
    {"binder": "B1", "values": [
      {"measurement": "binding result", "result": "binds"}
    ]}
  ]
}
